Laboratory results: IntAct's records for PubMed 22020126

B1: Histone acetyltransferase KAT8 (Homo sapiens), Q9H7Z6 (parent)
chain: MAAQGAAAAVAAGTSGVAGEGEPGPGENAAAEGTAPSPGRVSPPTPARGEPEVTVEIGETYLCRRPDSTWHSAEVIQSRVNDQEGREEFYVHYVGFNRRLDEWVDKNRLALTKTVKDAVQKNSEKYLSELAEQPERKITRNQKRKHDEINHVQKTYAEMDPTTAALEKEHEAITKVKYVDKIHIGNYEIDAWYFSPFPEDYGKQPKLWLCEYCLKYMKYEKSYRFHLGQCQWRQPPGKEIYRKSNISVYEVDGKDHKIYCQNLCLLAKLFLDHKTLYFDVEPFVFYILTEVDRQGAHIVGYFSKEKESPDGNNVACILTLPPYQRRGYGKFLIAFSYELSKLESTVGSPEKPLSDLGKLSYRSYWSWVLLEILRDFRGTLSIKDLSQMTSITQNDIISTLQSLNMVKYWKGQHVICVTPKLVEEHLKSAQYKKPPITVDSVCLKWAPPKHKQVKLSKK
B2: Histone acetyltransferase ESA1 (Saccharomyces cerevisiae), Q08649 (parent)
chain: MSHDGKEEPGIAKKINSVDDIIIKCQCWVQKNDEERLAEILSINTRKAPPKFYVHYVNYNKRLDEWITTDRINLDKEVLYPKLKATDEDNKKQKKKKATNTSETPQDSLQDGVDGFSRENTDVMDLDNLNVQGIKDENISHEDEIKKLRTSGSMTQNPHEVARVRNLNRIIMGKYEIEPWYFSPYPIELTDEDFIYIDDFTLQYFGSKKQYERYRKKCTLRHPPGNEIYRDDYVSFFEIDGRKQRTWCRNLCLLSKLFLDHKTLYYDVDPFLFYCMTRRDELGHHLVGYFSKEKESADGYNVACILTLPQYQRMGYGKLLIEFSYELSKKENKVGSPEKPLSDLGLLSYRAYWSDTLITLLVEHQKEITIDEISSMTSMTTTDILHTAKTLNILRYYKGQHIIFLNEDILDRYNRLKAKKRRTIDPNRLIWKPPVFTASQLRFAW

Variants of: B1
Conditions: with h4_yeast HHF1, P02309

effect of a mutation on the interaction	Variant
disrupting interaction	K274A

Variants of: B1
Conditions: with h4_yeast HHF1, P02309
Remark: another data set of the same source

effect of a mutation on the interaction	Variant
disrupting interaction	K274R

Variants of: B2
Conditions: with h4_yeast HHF1, P02309

effect of a mutation on the interaction	Variant
decreasing interaction	K262Q

Variants of: B2
Conditions: with h4_yeast HHF1, P02309
Remark: another data set of the same source

effect of a mutation on the interaction	Variant
disrupting interaction	K262R

Variants of: B2
Conditions: with h4_yeast HHF1, P02309
Remark: another data set of the same source

effect of a mutation on the interaction	Variant
disrupting interaction	K262A
